Assay results published in article PMC8853325.

Experiments:
[1] = substrate: CC(=O)N[C@H]1[C@@H](OP(=O)(O)OP(=O)(O)OCCCCCCCCCCCOc2ccccc2)O[C@H](CO)[C@@H](O)[C@@H]1O[C@H]1O[C@H](C)[C@@H](O)[C@H](O)[C@@H]1O; assay: cells, lysate or membranes; settings: donor GDP-D-[^3H]Rha, 5 mM MnCl2, Tris pH 9, 37 °C
[2] = substrate: C[C@H]1O[C@H](OCc2ccccc2)[C@@H](O)[C@@H](O)[C@@H]1O; assay: cells, lysate or membranes; settings: donor GDP-D-[^3H]Rha, 5 mM MnCl2, Tris pH 9, 37 °C

B1: His6-WbpX (Pseudomonas aeruginosa) (protein)
chain: MTRLLVECTYVFEHPKVNSGIQRVVRNVIRELPEADETVECIPVAMLDGTLYQVHSLAPLDPRPHSPLVRLRILVERAANYFWLGQRTLEKRRPFRSSPWARRLLYVACRLFAFAFLSIPLRLLDRILGKQQPAPVRATPLEHRAGDQLVLLDSSWHADFFPLAERLKSEGVGIVSVIYDLIPLTHPQFCDAGLVKVFNHWFDWIAATADGYVAISETIRDEVRAEMLRRIGPEKVAQRWFDYFHLGSELDLVEDGASVEPDLLRMFKAKAPVFLMVSTIEPRKNHGYLLDAFERAWAQGSQARLCIAGRIGWKCEALVERVRQHPELNKRLFMFNDLSDKSLEYAYSHAASLVFPSYVEGFGLPLVEAMQRGLPAMGSDIPVFREIGGEFMAYFDLADPQTLANLVTRFEATGEFPAERPVGEWRWIGWHEASRQLIARILLALGKAPAHGEAVHADCG
**Q.** With B1 as the protein, how does the Km [1] read?
**A.** 220 µM

**Q.** And the Km [2]?
**A.** 21 µM
